B1: FUS (protein, UniProt P35637 1-526, looked up)
RNA-binding protein FUS: MASNDYTQQATQSYGAYPTQPGQGYSQQSSQPYGQQSYSGYSQSTDTSGYGQSSYSSYGQSQNTGYGTQSTPQGYGSTGGYGSSQSSQSSYGQQSSYPGYGQQPAPSSTSGSYGSSSQSSSYGQPQSGSYSQQPSYGGQQQSYGQQQSYNPPQGYGQQNQYNSSSGGGGGGGGGGNYGQDQSSMSSGGGSGGGYGNQDQSGGGGSGGYGQQDRGGRGRGGSGGGGGGGGGGYNRSSGGYEPRGRGGGRGGRGGMGGSDRGGFNKFGGPRDQGSRHDSEQDNSDNNTIFVQGLGENVTIESVADYFKQIGIIKTNKKTGQPMINLYTDRETGKLKGEATVSFDDPPSAKAAIDWFDGKEFSGNPIKVSFATRRADFNRGGGNGRGGRGRGGPMGRGGYGGGGSGGGGRGGFPSGGGGGGGQQRAGDWKCPNPTCENMNFSWRNECNQCKAPKPDGPGGGPGGSHMGGNYGDDRRGGRGGYDRGGYRGRGGDRGGFRGGRGGGDRGGFGPGKMDSRGEHRQDRRERPY
B2: CAVIN1 (protein, UniProt Q6NZI2 1-390, looked up)
Caveolae-associated protein 1: MEDPTLYIVERPLPGYPDAEAPEPSSAGAQAAEEPSGAGSEELIKSDQVNGVLVLSLLDKIIGAVDQIQLTQAQLEERQAEMEGAVQSIQGELSKLGKAHATTSNTVSKLLEKVRKVSVNVKTVRGSLERQAGQIKKLEVNEAELLRRRNFKVMIYQDEVKLPAKLSISKSLKESEALPEKEGEELGEGERPEEDAAALELSSDEAVEVEEVIEESRAERIKRSGLRRVDDFKKAFSKEKMEKTKVRTRENLEKTRLKTKENLEKTRHTLEKRMNKLGTRLVPAERREKLKTSRDKLRKSFTPDHVVYARSKTAVYKVPPFTFHVKKIREGQVEVLKATEMVEVGADDDEGGAERGEAGDLRRGSSPDVHALLEITEESDAVLVDKSDSD
B3: DARS1 (protein, UniProt P14868 1-501, looked up)
Aspartate--tRNA ligase, …: MPSASASRKSQEKPREIMDAAEDYAKERYGISSMIQSQEKPDRVLVRVRDLTIQKADEVVWVRARVHTSRAKGKQCFLVLRQQQFNVQALVAVGDHASKQMVKFAANINKESIVDVEGVVRKVNQKIGSCTQQDVELHVQKIYVISLAEPRLPLQLDDAVRPEAEGEEEGRATVNQDTRLDNRVIDLRTSTSQAVFRLQSGICHLFRETLINKGFVEIQTPKIISAASEGGANVFTVSYFKNNAYLAQSPQLYKQMCICADFEKVFSIGPVFRAEDSNTHRHLTEFVGLDIEMAFNYHYHEVMEEIADTMVQIFKGLQERFQTEIQTVNKQFPCEPFKFLEPTLRLEYCEALAMLREAGVEMGDEDDLSTPNEKLLGHLVKEKYDTDFYILDKYPLAVRPFYTMPDPRNPKQSNSYDMFMRGEEILSGAQRIHDPQLLTERALHHGIDLEKIKAYIDSFRFGAPPHAGGGIGLERVTMLFLGLHNVRQTSMFPRDPKRLTP
B4: SFPQ (protein, UniProt P23246 1-707, looked up)
Splicing factor, proline- and …: MSRDRFRSRGGGGGGFHRRGGGGGRGGLHDFRSPPPGMGLNQNRGPMGPGPGQSGPKPPIPPPPPHQQQQQPPPQQPPPQQPPPHQPPPHPQPHQQQQPPPPPQDSSKPVVAQGPGPAPGVGSAPPASSSAPPATPPTSGAPPGSGPGPTPTPPPAVTSAPPGAPPPTPPSSGVPTTPPQAGGPPPPPAAVPGPGPGPKQGPGPGGPKGGKMPGGPKPGGGPGLSTPGGHPKPPHRGGGEPRGGRQHHPPYHQQHHQGPPPGGPGGRSEEKISDSEGFKANLSLLRRPGEKTYTQRCRLFVGNLPADITEDEFKRLFAKYGEPGEVFINKGKGFGFIKLESRALAEIAKAELDDTPMRGRQLRVRFATHAAALSVRNLSPYVSNELLEEAFSQFGPIERAVVIVDDRGRSTGKGIVEFASKPAARKAFERCSEGVFLLTTTPRPVIVEPLEQLDDEDGLPEKLAQKNPMYQKERETPPRFAQHGTFEYEYSQRWKSLDEMEKQQREQVEKNMKDAKDKLESEMEDAYHEHQANLLRQDLMRRQEELRRMEELHNQEMQKRKEMQLRQEEERRRREEEMMIRQREMEEQMRRQREESYSRMGYMDPRERDMRMGGGGAMNMGDPYGSGGQKFPPLGGGGGIGYEANPGVPPATMSGSMMGSDMRTERFGQGGAGPVGGQGPRGMGPGTPAGYGRGREEYEGPNKKPRF
B5: HSPD1 (protein, UniProt P10809 27-573, looked up)
60 kDa heat shock protein, …: AKDVKFGADARALMLQGVDLLADAVAVTMGPKGRTVIIEQSWGSPKVTKDGVTVAKSIDLKDKYKNIGAKLVQDVANNTNEEAGDGTTTATVLARSIAKEGFEKISKGANPVEIRRGVMLAVDAVIAELKKQSKPVTTPEEIAQVATISANGDKEIGNIISDAMKKVGRKGVITVKDGKTLNDELEIIEGMKFDRGYISPYFINTSKGQKCEFQDAYVLLSEKKISSIQSIVPALEIANAHRKPLVIIAEDVDGEALSTLVLNRLKVGLQVVAVKAPGFGDNRKNQLKDMAIATGGAVFGEEGLTLNLEDVQPHDLGKVGEVIVTKDDAMLLKGKGDKAQIEKRIQEIIEQLDVTTSEYEKEKLNERLAKLSDGVAVLKVGGTSDVEVNEKKDRVTDALNATRAAVEEGIVLGGGCALLRCIPALDSLTPANEDQKIGIEIIKRTLKIPAMTIAKNAGVEGSLIVEKIMQSSSEVGYDAMAGDFVNMVEKGIIDPTKVVRTALLDAAGVASLLTTAEVVVTEIPKEEKDPGMGAMGGMGGGMGGGMF
B6: CAV1 (protein, UniProt Q03135 2-178, looked up)
Caveolin-1: SGGKYVDSEGHLYTVPIREQGNIYKPNNKAMADELSEKQVYDAHTKEIDLVNRDPKHLNDDVVKIDFEDVIAEPEGTHSFDGIWKASFTTFTVTKYWFYRLLSALFGIPMALIWGIYFAILSFLHIWAVVPCIKSFLIEIQCISRVYSIYVHTVCDPLFEAVGKIFSNVRINLQKEI

What was measured:
HeLa cell extract preys = test: PDZ-AP-MS, biotinylated MBP-PDZ baits; format: binding, human; details: for Difference: log2 enrichment of prey; for Ratio: fold enrichment of prey
Procedure: (§1) For PDZ-AP-MS experiments, PDZ domains were cloned as His6-AviTag-MBP-PDZ constructs. For co-expression with BirA, E. coli BL21(DE3) cells were co-transformed with His6-AviTag-MBP, or His6-AviTag-MBP-PDZ-coding and PET21a-BirA (Addgene #20857) plasmids. Simultaneously to IPTG induction, 50 µM biotin was added to the media. After cell harvesting, the lysis buffer was also supplemented with 50 µM biotin. Otherwise, expression and double affinity purification was identical as previously described in details.
(§2) For PBM-AP-MS experiments, 30 μl streptavidin resin was mixed with biotin or peptide at 50–60 μM concentration in 6–6.5 resin volume for 60 min to achieve resin saturation. For PDZ-AP-MS experiments, 30 μl streptavidin resin was mixed with biotinylated MBP or MBP-PDZ at 40-50 μM concentration in >1000× resin volume for 60 min to achieve resin saturation. After saturation, resins were washed a single time (ten resin volume, holdup buffer), and were depleted with biotin (1 mM biotin, 5–10 resin volume, 10 min). Finally, resins were washed two times. 0.5 ml 2 mg/ml cell lysate was added to the dry resin (1 mg total input) and were incubated at 4 °C for 2 h. Then, the beads were washed three times with 10 resin volume buffer containing: 50 mM TRIS pH 8.5, 150 mM NaCl, 1% TritonX-100, 10× complete EDTA-free protease inhibitor cocktail, 2 mM EDTA, 1 mM TCEP. Then, the beads were washed two times with ten resin volume buffer containing: 50 mM TRIS pH 8.5, 150 mM NaCl, 1 mM TCEP. Finally, captured protein was eluted from the resin in two steps and the eluted fractions were pooled. For each elution the beads were incubated for 30 min with three resin volume buffer containing: 20 mM TRIS pH8.5, 100 mM NaCl, 500 μM TCEP, 8 M Urea. Between each step, the beads were separated by mild centrifugation and the supernatant was removed by gentle pipetting.
(§3) The samples were precipitated with TCA 20% overnight at 4 °C and centrifuged at 14,000 rpm for 10 min at 4 °C. The protein pellets were washed twice with 1 mL cold acetone and air dried. The protein extracts were solubilized in urea 8 M, reduced with 5 mM TCEP for 30 min, and alkylated with 10 mM iodoacetamide for 30 min in the dark. Double digestion was performed at 37 °C with 500 ng endoproteinase Lys-C for 4 h, followed by fourfold dilution and an overnight digestion with 500 ng trypsin. Peptide mixtures were then desalted on C18 spin-column and dried on Speed-Vacuum.
(§4) Samples were analyzed using an Ultimate 3000 nano-RSLC (Thermo Scientific, San Jose California) coupled in line with a LTQ-Orbitrap ELITE mass spectrometer via a nano-electrospray ionization source (Thermo Scientific, San Jose California). Peptide mixtures were injected in 0.1% TFA on a C18 Acclaim PepMap100 trap-column (75 µm ID × 2 cm, 3 µm, 100 Å, Thermo Fisher Scientific) for 3 min at 5 µL/min with 2% ACN, 0.1% FA in H2O and then separated on a C18 Accucore nano-column (75 µm ID × 50 cm, 2.6 µm, 150 Å, Thermo Fisher Scientific) at 220 nl/min and 38 °C with a 90 min linear gradient from 5% to 30% buffer B (A: 0.1% FA in H2O/B: 99% ACN, 0.1% FA in H2O), regeneration at 5% B. The mass spectrometer was operated in positive ionization mode, in data-dependent mode with survey scans from m/z 350–1500 acquired in the Orbitrap at a resolution of 120,000 at m/z 400. The 20 most intense peaks from survey scans were selected for further fragmentation in the Linear Ion Trap with an isolation window of 2.0 Da and were fragmented by CID with normalized collision energy of 35%. (TOP20CID method) Unassigned and single charged states were excluded from fragmentation. The Ion Target Value for the survey scans (in the Orbitrap) and the MS2 mode (in the Linear Ion Trap) were set to 1E6 and 5E3 respectively and the maximum injection time was set to 100 ms for both scan modes. Dynamic exclusion was set to 20 s after one repeat count with mass width at ±10 ppm. […]

HaCat cell extract preys = test: PDZ-AP-MS, biotinylated MBP-PDZ baits; format: binding, human; details: for Difference log2: enrichment of prey; for Ratio SNX27/MBP: bait SNX27 PDZ
Procedure: as §1, §2, §3, §4

[1] = bait SCRIB_2 PDZ (biotinylated MBP-PDZ) vs MBP control
[2] = bait SCRIB_2 PDZ vs MBP control

| Molecule | Difference (HeLa cell extract preys; [1]) | Ratio (HeLa cell extract preys; [2]) | Difference log2 (HaCat cell extract preys; bait SNX27 PDZ vs MBP) | Ratio SNX27/MBP (HaCat cell extract preys; fold change of prey) | further results |
| --- | --- | --- | --- | --- | --- |
| B1 | 4.68 | 25.6321 | – | – | – |
| B2 | – | – | 7.364 | 164.68 | – |
| B3 | – | – | – | – | Difference log2 (HaCat cell extract preys; bait SCRIB_2 PDZ vs MBP): 3.605; Ratio SCRIB_2/MBP (HaCat cell extract preys; bait SCRIB_2 PDZ, fold change of prey): 12.1719 |
| B4 | 5.287 | 39.0318 | – | – | Ratio (HeLa cell extract preys; bait DLG1_1 PDZ vs MBP control): 33.0339; Difference (HeLa cell extract preys; bait DLG1_1 PDZ vs MBP control): 5.046 |
| B5 | – | – | – | – | Difference log2 (HaCat cell extract preys; bait DLG1_1 PDZ vs MBP): 6.29; Ratio DLG1_1/MBP (HaCat cell extract preys; bait DLG1_1 PDZ, fold change of prey): 78.233; Ratio (HeLa cell extract preys; bait TX1BP3 PDZ vs MBP control): 104.688; Difference (HeLa cell extract preys; bait TX1BP3 PDZ vs MBP control): 6.71 |
| B6 | – | – | 8.5897 | 385.263 | – |

Source: PMC9482650, “Quantitative fragmentomics allow affinity mapping of interactomes” (Nature Communications, 2022)
